From PMC12350670
One block for each binder: values may come before it.

Molecular target: recombinant mouse fibroblast activation protein (mouse) (UniProt P97321)
Assay: BLI; biotinylated bait protein (30 nM) loaded on Octet streptavidin (SAX) biosensors; serially diluted VNAR-Fc (300-0.412 nM) as analyte; PBS with 1% BSA; kinetic analysis with a bivalent analyte model

recombinant mouse fibroblast activation protein (mouse), sequence (P97321 whole entry): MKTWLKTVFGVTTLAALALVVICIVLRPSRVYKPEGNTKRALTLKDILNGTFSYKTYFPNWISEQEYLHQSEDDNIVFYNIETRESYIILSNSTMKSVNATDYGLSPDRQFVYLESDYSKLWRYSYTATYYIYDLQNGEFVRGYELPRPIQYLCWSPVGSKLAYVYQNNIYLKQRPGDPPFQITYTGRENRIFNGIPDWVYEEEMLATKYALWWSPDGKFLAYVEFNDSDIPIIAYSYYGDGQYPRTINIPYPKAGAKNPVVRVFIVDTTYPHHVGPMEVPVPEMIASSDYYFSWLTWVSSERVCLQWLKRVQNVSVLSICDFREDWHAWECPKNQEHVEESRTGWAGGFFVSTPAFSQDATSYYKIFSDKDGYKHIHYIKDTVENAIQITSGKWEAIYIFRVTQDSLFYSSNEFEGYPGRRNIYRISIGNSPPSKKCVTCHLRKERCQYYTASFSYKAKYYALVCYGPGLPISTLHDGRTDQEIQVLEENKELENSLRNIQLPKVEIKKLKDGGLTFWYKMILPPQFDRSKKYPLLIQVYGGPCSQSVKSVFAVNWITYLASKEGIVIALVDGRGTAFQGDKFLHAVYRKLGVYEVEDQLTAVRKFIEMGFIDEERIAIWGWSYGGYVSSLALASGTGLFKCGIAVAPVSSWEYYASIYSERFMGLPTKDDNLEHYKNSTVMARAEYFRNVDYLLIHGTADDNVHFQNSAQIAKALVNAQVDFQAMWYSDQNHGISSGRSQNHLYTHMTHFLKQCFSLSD

Kd: 14.2 nM
B1: H4-Fc (Fc fusion)
chain: ARVDQTPQTITKETGESLTINCVLRDSNCALSSTYWYRKKSGSTNEESISKGGRYVETVNSGSKSFSLRINDLTVEDSGTYRCNVYVAGMSPCLSWGDVYGDGTAVTVN

Kd: 79.5 nM
B2: NGS2405-Fc (Fc fusion)
chain: ARVDQTPQTITKETGESLTINCVLRDSNCALSFTYWYRKKSGSTNEESISKGGRYVETVNSGSKSFSLRINDLTVEDSGTYRCNVYVGGGCPHWIDVYGDGTAVTVN
